Stoichiometry N data for one substance are collected here from publication PMC11601603.

The assay deals with Citrobacter sp. RHBSTW-00271 Ubl3 (Citrobacter sp. RHBSTW-00271). Description: SEC-MALS. In general terms: Size exclusion chromatography separates by hydrodynamic size, large species first.

As to “Citrobacter sp. RHBSTW-00271 Ubl3 (domain or fragment)”, the stoichiometry N stood at 2.

The stoichiometry N is a count of units in the complex or per binding partner.
